The nature of the data set: self-splicing fitness, log relative to wild type (ln ratio); higher = more splicing; Tetrahymena group I intron in knt gene, E. coli kanamycin selection, DiMSum; sequences stand for … in CUCUCU…GGAGGGAAAAGUUAUCAGGCAUGCACCUGGUAGCUAGUCUUUAAACCAAUAGAUUGCAUCGGUUUAAAAGGCAAGACCGUCAAAUUGCGGGAAAGGGGUCAACAGCCGUUCAGUACCAAGUCUCAGGGGAAACUUUGAGAUGGCCUUGCAAAGGGUAUGGUAAUAAGCUGACGGACAUGGUCCUAACCACGCAGCCAAGUCCUAAGUCAACAGAUCUUCUGUUGAUAUGGAUGCAGUUCACAGACUAAAUGUCGGUCGGGGAAGAUGUAUUCUUCUCAUAAGAUAUAGUCGGACCUCUCCUUAAUGGGAGCUAGCGGAUGAAGUGAUGCAACACUGGAGCCGCUGGGAACUAAUUUGUAUGCGAAAGUAUAUUGAUUAGUUUUGGAGUACUCGUGGUCG
An outline of the steps:
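Colonies from six replicate transformations of E. coli BL21(DE3) were pooled and amplicon-sequenced on an Illumina HiSeq 2500. The library placed an intron with all eight P1ex-region nucleotides randomised inside the knt kanamycin-resistance gene on pET-22b(+), and cells grew overnight at 37°C or 30°C on LB agar with or without 25 μg/mL kanamycin (plus 100 μg/mL carbenicillin, 50 μM IPTG, 0.2% rhamnose). Fitness is the DiMSum error-weighted combination of wild-type-normalised replicate fold changes, kanamycin versus none.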

± gives the uncertainty stated by the source.

For the sequence UCAUAGCAAUAUUACGACCG, the “self-splicing fitness (ln)” value runs as follows: (30 °C) -1.36 ± 0.16; (37 °C) -0.325 ± 0.22.
For UCAUAGCAAUAUUACGAGUA, the “self-splicing fitness (ln)” value runs as follows: (30 °C) -3.06 ± 0.23; (37 °C) 0.0724 ± 0.12.
For UCAUAGCAAUAUUACGCAGG the same measures were -3.24 ± 0.17 and -3.01 ± 0.17.
With UCAUAGCAAUAUUACGCGCC, the “self-splicing fitness (ln)” value (30 °C) is -3.62 ± 0.44 and the “self-splicing fitness (ln)” value (37 °C) is -1.88 ± 0.33.
On the same counts, the results for UCAUAGCAAUAUUACGGAAU are -3.32 ± 0.33 and -3.09 ± 0.47.
For UCAUAGCAAUAUUACGGCCU the same measures were -3.03 ± 0.17 and -2.48 ± 0.31.
As to UCAUAGCAAUAUUACGGCGU, the “self-splicing fitness (ln)” value is -3.73 ± 0.14 (30 °C) and -3.17 ± 0.19 (37 °C).
Regarding UCAUAGCAAUAUUACGGCUG, the “self-splicing fitness (ln)” value (30 °C) is -1.33 ± 0.11 and the “self-splicing fitness (ln)” value (37 °C) was -1.12 ± 0.14.
Regarding UCAUAGCAAUAUUACGGCUU, the “self-splicing fitness (ln)” value (37 °C) was -1.48 ± 0.26.
In the case of UCAUAGCAAUAUUACGGGAU, the “self-splicing fitness (ln)” value runs as follows: (30 °C) -3.11 ± 0.18; (37 °C) -2.87 ± 0.28.
Turning to UCAUAGCAAUAUUACGGGCA, the “self-splicing fitness (ln)” value was -1.29 ± 0.11 (30 °C) and -0.42 ± 0.1 (37 °C).
For UCAUAGCAAUAUUACGGUUU, the “self-splicing fitness (ln)” value reads like this: (30 °C) -3.72 ± 0.28; (37 °C) -1.92 ± 0.22.
For UCAUAGCAAUAUUACGUACA the same measures were -2.15 ± 0.14 and -1.46 ± 0.12.
As to UCCAAGCAAUAUUACGAACG, the “self-splicing fitness (ln)” value by setting is: (30 °C) -2.64 ± 0.15; (37 °C) -1.62 ± 0.23.
As for UCCAAGCAAUAUUACGACCU, the “self-splicing fitness (ln)” value (30 °C) is -2.9 ± 0.26 and the “self-splicing fitness (ln)” value (37 °C) was -1.95 ± 0.26.
Take UCCAAGCAAUAUUACGACGG: the “self-splicing fitness (ln)” value runs as follows: (30 °C) -0.354 ± 0.076; (37 °C) 0.164 ± 0.1.
For UCCAAGCAAUAUUACGAGUA the same measures were -0.957 ± 0.099 and -0.576 ± 0.084.
On the same counts, the results for UCCAAGCAAUAUUACGAUUC are -2.6 ± 0.37 and -2.18 ± 0.34.
On the same counts, the results for UCCAAGCAAUAUUACGCACA are -0.502 ± 0.092 and -0.309 ± 0.099.
As to UCCAAGCAAUAUUACGCGUG, the “self-splicing fitness (ln)” value is -4.16 ± 0.21 (30 °C) and -2.53 ± 0.2 (37 °C).
For UCCAAGCAAUAUUACGCUAA the same measures were -2.62 ± 0.14 and -1.36 ± 0.13.
For UCCAAGCAAUAUUACGCUAU the same measures were -3.98 ± 0.47 and -2.26 ± 0.23.
In the case of UCCAAGCAAUAUUACGGAAA, the “self-splicing fitness (ln)” value (30 °C) is -2.19 ± 0.2 and the “self-splicing fitness (ln)” value (37 °C) is -1.51 ± 0.23.
Regarding UCCAAGCAAUAUUACGGAUC, the “self-splicing fitness (ln)” value runs as follows: (30 °C) -3.49 ± 0.15; (37 °C) -2.9 ± 0.16.
For UCCAAGCAAUAUUACGGGAC the same measures were -3.59 ± 0.25 and -1.24 ± 0.21.
Turning to UCCAAGCAAUAUUACGGGUC, the “self-splicing fitness (ln)” value was -3.16 ± 0.13 (30 °C) and -2.17 ± 0.14 (37 °C).
For UCCAAGCAAUAUUACGGUAU the same measures were -2.72 ± 0.14 and -2.02 ± 0.12.
On the same counts, the results for UCCAAGCAAUAUUACGGUGC are -3.58 ± 0.14 and -2.44 ± 0.12.
Turning to UCCAAGCAAUAUUACGGUGG, the “self-splicing fitness (ln)” value was -2.08 ± 0.079 (30 °C) and -0.995 ± 0.096 (37 °C).
UCCAAGCAAUAUUACGUAGA: the “self-splicing fitness (ln)” value by setting is: (30 °C) -0.92 ± 0.06; (37 °C) 0.437 ± 0.092.
For UCCAAGCAAUAUUACGUAUG, the “self-splicing fitness (ln)” value is, setting by setting: (30 °C) -4.08 ± 0.19; (37 °C) -2.36 ± 0.2.
For UCCAAGCAAUAUUACGUCAA the same measures were -2.68 ± 0.19 and -0.871 ± 0.1.
For UCCAAGCAAUAUUACGUUGA the same measures were -0.725 ± 0.061 and -0.109 ± 0.073.
On the same counts, the results for UCCCAGCAAUAUUACGAAAU are -3.28 ± 0.16 and -1.76 ± 0.2.
With UCCCAGCAAUAUUACGAAGU, the “self-splicing fitness (ln)” value was -2.04 ± 0.1 (30 °C) and -1.14 ± 0.11 (37 °C).
On the same counts, the results for UCCCAGCAAUAUUACGACGA are -0.00629 ± 0.056 and 0.0828 ± 0.065.
Regarding UCCCAGCAAUAUUACGAGAA, the “self-splicing fitness (ln)” value (30 °C) was -1.87 ± 0.18 and the “self-splicing fitness (ln)” value (37 °C) was -0.452 ± 0.13.
On the same counts, the results for UCCCAGCAAUAUUACGAGCG are -3.32 ± 0.33 and -2.02 ± 0.26.
With UCCCAGCAAUAUUACGAGGU, the “self-splicing fitness (ln)” value was -1.76 ± 0.071 (30 °C) and -0.885 ± 0.073 (37 °C).
For UCCCAGCAAUAUUACGCAAU the same measures were -2.69 ± 0.11 and -2.16 ± 0.13.
For the sequence UCCCAGCAAUAUUACGCAGC, the “self-splicing fitness (ln)” value runs as follows: (30 °C) -3.71 ± 0.29; (37 °C) -3.19 ± 0.47.
Consider UCCCAGCAAUAUUACGCAGU, for which the “self-splicing fitness (ln)” value was -1.21 ± 0.075 (30 °C) and -0.7 ± 0.1 (37 °C).
For UCCCAGCAAUAUUACGCAUC the same measures were -4.39 ± 0.42 and -1.85 ± 0.22.
For UCCCAGCAAUAUUACGCCAG the same measures were -2.08 ± 0.23 and -2.27 ± 0.49.
On the same counts, the results for UCCCAGCAAUAUUACGCCGA are -0.426 ± 0.1 and 0.659 ± 0.13.
As for UCCCAGCAAUAUUACGCGGU, the “self-splicing fitness (ln)” value reads like this: (30 °C) -3.01 ± 0.13; (37 °C) -0.898 ± 0.087.
In the case of UCCCAGCAAUAUUACGCGUC, the “self-splicing fitness (ln)” value is, setting by setting: (30 °C) -3.15 ± 0.19; (37 °C) -1.47 ± 0.18.
As to UCCCAGCAAUAUUACGCUCU, the “self-splicing fitness (ln)” value by setting is: (30 °C) -2.77 ± 0.16; (37 °C) -1.7 ± 0.17.
Take UCCCAGCAAUAUUACGCUUA: the “self-splicing fitness (ln)” value reads like this: (30 °C) -2.26 ± 0.14; (37 °C) -0.458 ± 0.11.
For UCCCAGCAAUAUUACGGAGC the same measures were -1.44 ± 0.098 and -1.44 ± 0.18.
Consider UCCCAGCAAUAUUACGGUGU, for which the “self-splicing fitness (ln)” value was -0.353 ± 0.043 (30 °C) and 0.504 ± 0.055 (37 °C).
For UCCCAGCAAUAUUACGGUUA the same measures were -0.244 ± 0.071 and 0.0867 ± 0.077.
On the same counts, the results for UCCCAGCAAUAUUACGUAAU are -2.01 ± 0.068 and -0.749 ± 0.085.
On the same counts, the results for UCCCAGCAAUAUUACGUACG are -3.27 ± 0.2 and -2.93 ± 0.3.
Turning to UCCCAGCAAUAUUACGUAUG, the “self-splicing fitness (ln)” value runs as follows: (30 °C) -3.3 ± 0.16; (37 °C) -2.2 ± 0.16.
On the same counts, the results for UCCCAGCAAUAUUACGUCCA are -1.51 ± 0.12 and -0.587 ± 0.12.
On the same counts, the results for UCCCAGCAAUAUUACGUGUC are -2.9 ± 0.15 and -2.44 ± 0.16.
Turning to UCCCAGCAAUAUUACGUGUU, the “self-splicing fitness (ln)” value reads like this: (30 °C) -3.33 ± 0.12; (37 °C) -2.19 ± 0.11.
Consider UCCCAGCAAUAUUACGUUGA, for which the “self-splicing fitness (ln)” value (30 °C) is -1.26 ± 0.066 and the “self-splicing fitness (ln)” value (37 °C) is 0.408 ± 0.075.
Turning to UCCGAGCAAUAUUACGAAAA, under “37 °C”, the “self-splicing fitness (ln)” value was -1.07 ± 0.37.
Turning to UCCGAGCAAUAUUACGAACA, the “self-splicing fitness (ln)” value (30 °C) was -3.11 ± 0.47.
Take UCCGAGCAAUAUUACGAAGG: the “self-splicing fitness (ln)” value runs as follows: (30 °C) -2.07 ± 0.11; (37 °C) -1.43 ± 0.13.
On to UCCGAGCAAUAUUACGACGC, for which the “self-splicing fitness (ln)” value (37 °C) was -1.61 ± 0.42.
Take UCCGAGCAAUAUUACGACGU: the “self-splicing fitness (ln)” value was -1.05 ± 0.07 (30 °C) and 0.0752 ± 0.11 (37 °C).
For the sequence UCCGAGCAAUAUUACGAGAG, the “self-splicing fitness (ln)” value runs as follows: (30 °C) -2.57 ± 0.16; (37 °C) -2.91 ± 0.21.
As to UCCGAGCAAUAUUACGAGUG, the “self-splicing fitness (ln)” value was -2.41 ± 0.09 (30 °C) and -1.34 ± 0.094 (37 °C).
As for UCCGAGCAAUAUUACGAUCG, the “self-splicing fitness (ln)” value reads like this: (30 °C) -3.27 ± 0.27; (37 °C) -2.51 ± 0.34.
Take UCCGAGCAAUAUUACGAUGU: the “self-splicing fitness (ln)” value is, setting by setting: (30 °C) -3 ± 0.22; (37 °C) -1.87 ± 0.17.
For UCCGAGCAAUAUUACGCACU the same measures were -2.93 ± 0.25 and -1.99 ± 0.22.
On the same counts, the results for UCCGAGCAAUAUUACGCCAG are -3.95 ± 0.28 and -2.24 ± 0.31.
With UCCGAGCAAUAUUACGCUAC, the “self-splicing fitness (ln)” value (30 °C) is -2.97 ± 0.38.
In the case of UCCGAGCAAUAUUACGCUAU, the “self-splicing fitness (ln)” value runs as follows: (30 °C) -2.09 ± 0.24; (37 °C) -3.2 ± 0.33.
Turning to UCCGAGCAAUAUUACGCUCC, under “30 °C”, the “self-splicing fitness (ln)” value is -1.58 ± 0.41.
For the sequence UCCGAGCAAUAUUACGCUGA, the “self-splicing fitness (ln)” value (30 °C) is -2.04 ± 0.12 and the “self-splicing fitness (ln)” value (37 °C) is -1.97 ± 0.14.
UCCGAGCAAUAUUACGCUUG: the “self-splicing fitness (ln)” value is, setting by setting: (30 °C) -3.49 ± 0.28; (37 °C) -2.09 ± 0.25.
For UCCGAGCAAUAUUACGGACA the same measures were -2.33 ± 0.18 and -0.762 ± 0.13.
As for UCCGAGCAAUAUUACGGGAA, the “self-splicing fitness (ln)” value (30 °C) is -3.05 ± 0.3 and the “self-splicing fitness (ln)” value (37 °C) is -1.65 ± 0.19.

The record behind these values is the supplement of paper PMC7877785.
